Assay results published in US20250032583A1 (GUANGDONG FAPON BIOPHARMA, published 2025).

Molecular target: T1, mPD1 (on CHO-mPD1 cells) (mouse (printed as mPD1), UniProt Q02242 25-288)
T1 construct: whole, on cells; Target of the antibody terminus in the FACS assay
T1 sequence (looked up): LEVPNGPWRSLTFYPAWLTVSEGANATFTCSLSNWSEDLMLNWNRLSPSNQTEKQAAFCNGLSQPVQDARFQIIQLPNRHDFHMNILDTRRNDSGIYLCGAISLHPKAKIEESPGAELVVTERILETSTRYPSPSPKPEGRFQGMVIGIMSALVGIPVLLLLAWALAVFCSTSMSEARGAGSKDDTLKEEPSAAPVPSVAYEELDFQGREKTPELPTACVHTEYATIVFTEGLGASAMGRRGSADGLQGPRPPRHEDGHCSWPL
Test: flow cytometry (FACS) on CHO-mPD1 cells, PE secondary antibody, 3-fold dilutions from 400 nM
Procedure: CHO-mPD1 or CHO-hIL-10R cells were centrifuged at 250 g for 5 min, a supernatant was discarded, the cell density was adjusted to 2E+06 by a PBS buffer with 3% BSA, and it was evenly divided into a 96-well V-shaped plate according to 100 μl/tube; the fusion protein molecules diluted above were added to cells, and incubated at 100 μL/well and 2-8° C. for 0.5 h; the 96-well plate was taken out, and centrifuged at 250 g for 5 min, and a supernatant was removed carefully; the PBS buffer with 3% BSA was used to prepare a PE fluorescent secondary antibody (1:500 dilution), it was added to the corresponding 96-well plate according to the volume of 100 μL/well, and the cells were resuspended, and incubated at 2-8° C. for 30 min; the 96-well plate was taken out, and centrifuged at 250 g for 5 min, a supernatant was removed carefully, the PBS buffer with 3% BSA was added at 200 μL/well, and it was centrifuged again at 250 g for 5 min, and a supernatant was removed carefully; and it was resuspended with 1×PBS according to the volume of 100 μL/well, and FACS detection was performed after the resuspension.

binding result: binds
B1: R0989 (other)
heavy: QVQLKESGPGLVQPSQTLSLTCTVSGFSLTSYNVHWVRQPPGKGLEWMGGMRYNEDTSYNSALKSRLSISRDTSKNQVFLKMNSLQTDDTGTYYCTRDAVYGGYGGWFAYWGQGTLVTVSSASTKGPSVFPLAPSSKSTSGGTAALGCLVKDYFPEPVTVSWNSGALTSGVHTFPAVLQSSGLYSLSSVVTVPSSSLGTQTYICNVNHKPSNTKVDKRVEPKSCDKTHTCPPCPAPEAAGGPSVFLFPPKPKDTLMISRTPEVTCVVVDVSHEDPEVKFNWYVDGVEVHNAKTKPREEQYNSTYRVVSVLTVLHQDWLNGKEYKCKVSNKALPAPIEKTISKAKGSGSGSGSGQGTQSENSCTHFPGNLPNMLRDLRDAFSRVKTFFQMKDQLDNLLLKESLLEDFKGYLGCQALSEMIQFYLEEVMPQAENQDPDIKAHVNSLGENLKTLRLRLRRCHRFLPCENGGGSGGKSKAVEQVKNAFNKLQEKGIYKAMSEFDIFINYIEAYMTMKIRNGSGSGSGSGQPREPQVYTLPPSREEMTKNQVSLTCLVKGFYPSDIAVEWESNGQPENNYKTTPPVLDSDGSFFLYSKLTVDKSRWQQGNVFSCSVMHEALHNHYTQKSLSLSPGK
light: DTVLTQSPALAVSLGQRVTISCKASETVSSSMYSYIHWYQQKPGQQPKLLIYRASNLESGVPARFSGSGSGTDFTLTIDPVEADDVATYFCQQSWNPWTFGGGTKLELKRTVAAPSVFIFPPSDEQLKSGTASVVCLLNNFYPREAKVQWKVDNALQSGNSQESVTEQDSKDSTYSLSSTLTLSKADYEKHKVYACEVTHQGLSSPVTKSFNRGEC
notes: Anti-PD-1 antibody with the modified IL-10 monomer inserted between CH2 and CH3 through linker2; also called IL-10 monomer fusion protein, IL-10 monomer between CH2 and CH3 of the heavy chain (Position 3)
